In patent publication US12708119B2, “Methods of reducing or preventing clostridioides difficile colonization” (priority 2020, dated 2026):
Entries after “also recorded” stand apart in the source; their conditions may differ.

Legend:
[1] = system: C. difficile R20291 spores; assay: Sporicidal enhancement of CDiff_F1 aptamer in combination with Clinell sporicidal solution: growth / MSC (Example 3); type: cell-based, Clostridioides difficile; set-up: key to Growth observed after recovering viable C. difficile R20291 spores: Growth was recorded as “+”; no growth as “−”; conditions: for Growth observed after recovering viable C. difficile R20291 spores: Aptamers only, treatment 15 minutes
Method: (§1) Prior to testing, the CDiff_F1 aptamers were diluted in nuclease free water to a concentration of 80 μM. The aptamers were folded by heating to 95° C. in a digital dry bath for 5 minutes and then immediately placed on ice and cooled to 2° C. The aptamers were stored at 2-4° C. while in use. A C. difficile SH11 bacterial spore inoculum was prepared to 1×108±5×10^7 CFUmL−1 according to internal procedures. The inoculum was confirmed by serial dilution and plating out the resultant suspensions onto brain heart infusion agar supplemented with horse blood and yeast (BHI-YHT). The CDiff_F1 aptamers were further diluted in “BB+Mg2+” buffer to obtain two times in-test concentrations ([…]). Ten microlitres of C. difficile spores were added to 10 μL of each two times in-test concentration of CDiff_F1 aptamer. The spore suspension was pipette mixed and incubated with CDiff_F1 aptamer at room temperature for one hour. The spores were then washed three times by centrifuging at 13,400 RPM for 10 minutes. In each wash the supernatant was removed, and the pellet was resuspended in 100 μL of “BB+Mg2+” buffer. Following the third wash, the spores were resuspended in 100 μL of “BB+Mg2+” buffer and vortexed to obtain a homogenous solution.
(§2) A total of six, two times in-test concentrations of each sporicidal test agent were prepared from the stock (100%, 50%, 25%, 12.5%, 6.25%, 3.125%). Negative and positive control solutions were also prepared. Ten microliter aliquots of each sporicidal test agent concentration or control solution were added to the wells of a 96-well plate. A 10 μL aliquot of the aptamer-spore suspension was added to each test agent or control solution and pipette mixed. The final in-test concentrations of each sporicidal test agent were 50%, 25%, 12.5%, 6.25%, 3.125%, 1.5625%. The plates were then incubated for 15 minutes at 37° C.±2° C. in an anaerobic environment. Following incubation, 50 μL of GH neutraliser was added to each well and pipette mixed. A 10 μL aliquot of neutralised suspension was taken from each well and transferred to an agar plate and incubated for 48 hours at 37° C.±2° C. in an anaerobic environment. Growth was recorded as “+” and no growth as “−”. The minimum sporicidal concentration (MSC) for each concentration was identified as the lowest concentration with no growth for all replicates. […] The test was repeated without the presence of the aptamers and without the presence of the Clinell® sporicidal solution. Testing was also repeated using C. difficile ATCC® 43598™ and C. difficile R20291 spores. Testing was performed in triplicate.

[2] = system: C. difficile ATCC® 43598™ spores; assay: as above; type: cell-based, Clostridioides difficile; set-up: key to Growth observed after recovering viable C. difficile ATCC 43598 spores: Growth was recorded as “+”; no growth as “−”; conditions: for Growth observed after recovering viable C. difficile ATCC 43598 spores: Aptamers only, treatment 15 minutes
Method: as §1, §2

[3] = system: C. difficile SH11 spores; assay: as above; type: cell-based, Clostridioides difficile; set-up: key to Growth observed after recovering viable spores: Growth was recorded as “+”; no growth as “−”; conditions: for Growth observed after recovering viable spores: aptamers only, treatment 15 minutes
Method: as §1, §2

[4] = system: Clostridioides difficile R20291 spores; assay: Sporicidal enhancement of CotE_H2 and CDec_D1 aptamers in combination with Clinell sporicidal solution: growth / MSC (Examples 4 and 6); type: cell-based; conditions: for effect of the addition of aptamer on the sporicidal capabilities of Clinell sporicidal solution / growth of spores in the presence of aptamer alone: R20291 spores
Method: (§3) Prior to testing, CotE_H2 aptamers were diluted in nuclease free water to a concentration of 80 μM. The aptamers were folded by heating to 95° C. in a digital dry bath for 5 minutes and then immediately placed on ice and cooled to 2° C. The aptamers were stored at 2-4° C. while in use. A Clostridioides difficile SH11 bacterial spore inoculum was prepared to 1×10^7±5×10^6 CFUmL^−1 according to internal procedures. The inoculum was confirmed by serial dilution and plating out the resultant suspensions onto brain heart infusion agar supplemented with horse blood and yeast (BHI-YHT). CotE_H2 aptamers were further diluted in “TbKst” buffer to obtain 2× in-test concentrations (40, 20, 10 and 5 μM). Ten microlitres of C. difficile spores were added to 10 μL of each 2× in-test concentration of CotE_H2 aptamer. The spore suspension was pipette mixed and incubated with CotE_H2 aptamer at room temperature for one hour. The spores were then washed three times by centrifuging at 13,400 RPM for 10 minutes. In each wash the supernatant was removed, and the pellet was resuspended in 100 μL of “TbKst” buffer. Following the third wash, the spores were resuspended in 100 μL of “TbKst” buffer and vortexed to obtain a homogenous solution.
(§4) A total of six 2× in-test concentrations (1:2 dilutions) of the sporicidal test agent were prepared from the stock (100%, 50%, 25%, 12.5%, 6.25%, 3.125%). Negative and positive control solutions were also prepared. Ten microliter aliquots of each sporicidal test agent concentration or control solution were added to the wells of a 96-well plate. A 10 μL aliquot of the aptamer-spore suspension was added to each test agent or control solution and pipette mixed. The final in-test concentrations of the sporicidal test agent were 50%, 25%, 12.5%, 6.25%, 3.125%, 1.5625%. The plates were then incubated for 15 minutes at 37° C.±2° C. in an anaerobic environment. Following incubation, 50 μL of GH neutraliser was added to each well and pipette mixed. A 10 μL aliquot of neutralised suspension was taken from each well and transferred to an agar plate and incubated for 48 hours at 37° C.±2° C. in an anaerobic environment. Growth was recorded as “+” and no growth as “−”. The minimum sporicidal concentration (MSC) for each spore and aptamer concentration was identified as the lowest concentration with no growth for all replicates. […] The test was repeated without the presence of the aptamers and without the presence of the Clinell® sporicidal solution. Testing was also repeated using C. difficile ATCCR 43598™ and C. difficile R20291 spores. Testing was performed in triplicate. The method was repeated with CDec_D1 aptamers for all three strains of C. difficile spores.

[5] = system: Clostridioides difficile ATCC® 43598™ spores; assay: as above; type: cell-based
Method: as §3, §4

[6] = system: Clostridioides difficile SH11 spores; assay: as above; type: cell-based; conditions: for effect of the addition of aptamer on the sporicidal capabilities of Clinell sporicidal solution / growth of spores in the presence of aptamer alone: SH11 spores
Method: as §3, §4

[7] = C. difficile R20291 spores, aptamer without Clinell sporicidal solution
[8] = any concentration of CotE_H2 aptamers without Clinell sporicidal solution
[9] = C. difficile ATCC ® 43598 ™ spores, aptamer without Clinell sporicidal solution
[10] = C. difficile SH11 spores, aptamer without Clinell sporicidal solution
[11] = any concentration of CDec_D1 aptamers without Clinell sporicidal solution

B1: CDiff_F1: aptamer against C.diff spores, SEQ ID NO: 1; Table 4 lists fragments SEQ ID NO: 24, 44, 45 under the same ID (nucleic acid)
DNA: CCAGTGTAGACTACTCAATGCTCTTACGATCCTCACCTGCTAGCACACCCATATCCCATGCGTACTATCCACAGGTCAACC
modifications: listed as DNA, chemistry not given here
Growth observed after recovering viable C. difficile R20291 spores ([1]; CDiff_F1 aptamer 2.5 μM): +
Growth observed after recovering viable C. difficile R20291 spores ([1]; CDiff_F1 aptamer 5 μM): +
Growth observed after recovering viable C. difficile R20291 spores ([1]; CDiff_F1 aptamer 10 μM): +
Growth observed after recovering viable C. difficile R20291 spores ([1]; CDiff_F1 aptamer 20 μM): +
effect of the addition of aptamer on the sporicidal capabilities of Clinell sporicidal solution ([1]; R20291 spores): enhanced
MSC of CDiff_F1 ([1]; R20291 spores, aptamer without Clinell sporicidal solution): >20 µM
growth of spores in the presence of aptamer alone ([1]; R20291 spores, only CDiff_F1 aptamers): did not affect
effect of the addition of aptamer on the sporicidal capabilities of Clinell sporicidal solution ([2]; ATCC 43598 spores): enhanced
growth of spores in the presence of aptamer alone ([2]; ATCC 43598 spores, any concentration of CDiff_F1 aptamers without Clinell sporicidal solution): unaffected; also recorded: did not affect
MSC of CDiff_F1 ([2]; ATCC 43598 spores, aptamer without Clinell sporicidal solution): >20 µM
Growth observed after recovering viable C. difficile ATCC 43598 spores ([2]; CDiff_F1 aptamer 2.5 μM): +
Growth observed after recovering viable C. difficile ATCC 43598 spores ([2]; CDiff_F1 aptamer 5 μM): +
Growth observed after recovering viable C. difficile ATCC 43598 spores ([2]; CDiff_F1 aptamer 10 μM): +
Growth observed after recovering viable C. difficile ATCC 43598 spores ([2]; CDiff_F1 aptamer 20 μM): +
fold reduction in the concentration of peracetic acid required for sporicidal activity ([2]; spores of the ATCC 43598 strain, after 15 minutes): up to 2 fold
effect of the addition of aptamer on the sporicidal capabilities of Clinell sporicidal solution ([3]; SH11 spores): enhanced
growth of spores in the presence of aptamer alone ([3]; SH11 spores, any concentration of CDiff_F1 aptamers without Clinell sporicidal solution): unaffected; also recorded: did not affect
MSC of CDiff_F1 ([3]; SH11 spores, aptamer without Clinell sporicidal solution): >20 µM
Growth observed after recovering viable spores ([3]; CDiff_F1 2.5 μM, SH11 spores): +
Growth observed after recovering viable spores ([3]; CDiff_F1 5 μM, SH11 spores): +
Growth observed after recovering viable spores ([3]; CDiff_F1 10 μM, SH11 spores): +
Growth observed after recovering viable spores ([3]; CDiff_F1 20 μM, SH11 spores): +
fold reduction in the concentration of peracetic acid required for sporicidal activity ([3]; spores of the SH11 strain, 20 μM of the aptamer): up to 4 fold

B2: CotE_H2: aptamer against CotE, SEQ ID NO: 11; Table 4 lists fragments SEQ ID NO: 26-30 under the same ID (nucleic acid)
DNA: CCAGTGTAGACTACTCAATGCGGCTGTGTGACTTGACCTTTGGAATGGGTGGGAGGGATGGGTACTATCCACAGGTCAACC
modifications: listed as DNA, chemistry not given here
MSC of CotE_H2 [4, 7]: >20 µM
effect of the addition of aptamer on the sporicidal capabilities of Clinell sporicidal solution [4]: enhanced
growth of spores in the presence of aptamer alone [4, 8]: unaffected
growth of spores in the presence of aptamer alone ([5]; ATCC 43598 spores, any concentration of CotE_H2 aptamers without Clinell sporicidal solution): unaffected
MSC of CotE_H2 [5, 9]: >20 µM
MSC of CotE_H2 [6, 10]: >20 µM
effect of the addition of aptamer on the sporicidal capabilities of Clinell sporicidal solution [6]: enhanced
growth of spores in the presence of aptamer alone [6, 8]: unaffected

B3: CDec_D1: aptamer against CdeC, SEQ ID NO: 6; Table 4 lists fragments SEQ ID NO: 38, 39 under CdeC_D1 (nucleic acid)
DNA: CCAGTGTAGACTACTCAATGCCGTGGACTGGTCGGGTTTGGATTCGGCAGATGAATCAGTAGTACTATCCACAGGTCAACC
modifications: DNA, backbone and methylation of C not given here
MSC of CDec_D1 [4, 7]: >20 µM
effect of the addition of aptamer on the sporicidal capabilities of Clinell sporicidal solution [4]: enhanced
growth of spores in the presence of aptamer alone [4, 11]: unaffected
effect of the addition of aptamer on the sporicidal capabilities of Clinell sporicidal solution ([5]; ATCC 43598 spores): enhanced
growth of spores in the presence of aptamer alone ([5]; ATCC 43598 spores, any concentration of CDec_D1 aptamers without Clinell sporicidal solution): unaffected
MSC of CDec_D1 [5, 9]: >20 µM
MSC of CDec_D1 [6, 10]: >20 µM
effect of the addition of aptamer on the sporicidal capabilities of Clinell sporicidal solution [6]: enhanced
growth of spores in the presence of aptamer alone [6, 11]: unaffected
